± gives the uncertainty stated by the source.
Test: self-splicing fitness, log relative to wild type (ln ratio); higher = more splicing; Tetrahymena group I intron in knt gene, E. coli kanamycin selection, DiMSum; sequences stand for … in CUCUCU…GGAGGGAAAAGUUAUCAGGCAUGCACCUGGUAGCUAGUCUUUAAACCAAUAGAUUGCAUCGGUUUAAAAGGCAAGACCGUCAAAUUGCGGGAAAGGGGUCAACAGCCGUUCAGUACCAAGUCUCAGGGGAAACUUUGAGAUGGCCUUGCAAAGGGUAUGGUAAUAAGCUGACGGACAUGGUCCUAACCACGCAGCCAAGUCCUAAGUCAACAGAUCUUCUGUUGAUAUGGAUGCAGUUCACAGACUAAAUGUCGGUCGGGGAAGAUGUAUUCUUCUCAUAAGAUAUAGUCGGACCUCUCCUUAAUGGGAGCUAGCGGAUGAAGUGAUGCAACACUGGAGCCGCUGGGAACUAAUUUGUAUGCGAAAGUAUAUUGAUUAGUUUUGGAGUACUCGUGGUCG
Method in brief: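 Six replicate transformations of E. coli BL21(DE3) with a pET-22b(+) library were grown overnight at 37°C or 30°C. The library randomised all eight P1ex-region intron nucleotides, the intron lying in the knt kanamycin-resistance gene, and plates were LB agar with or without 25 μg/mL kanamycin plus 100 μg/mL carbenicillin, 50 μM IPTG and 0.2% rhamnose. Pooled colonies were amplicon-sequenced on an Illumina HiSeq 2500, and fitness is the DiMSum error-weighted combination of wild-type-normalised replicate fold changes, kanamycin versus none.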

Row | Sequence | self-splicing fitness (ln) (30 °C) | self-splicing fitness (ln) (37 °C)
1 | GGGGAGCAAUAUUACGACAU | -2.17 ± 0.022 | -1.15 ± 0.037
2 | GGGGAGCAAUAUUACGACCA | -0.254 ± 0.14 | 0.709 ± 0.23
3 | GGGGAGCAAUAUUACGCAAG | -3.34 ± 0.26 | -1.28 ± 0.2
4 | GGGGAGCAAUAUUACGCAGA | – | -2.07 ± 0.47
5 | GGGGAGCAAUAUUACGCCAA | – | -0.647 ± 0.44
6 | GGGGAGCAAUAUUACGCCAU | – | -1.58 ± 0.32
7 | GGGGAGCAAUAUUACGCGAA | -2.75 ± 0.4 | 0.457 ± 0.31
8 | GGGGAGCAAUAUUACGCUAU | -3.31 ± 0.36 | -1.88 ± 0.38
9 | GGGGAGCAAUAUUACGCUUG | -2.43 ± 0.17 | -0.967 ± 0.18
10 | GGGGAGCAAUAUUACGGUAC | – | 0.506 ± 0.25
11 | GGGGAGCAAUAUUACGUCGA | 0.294 ± 0.28 | –
12 | GGGGAGCAAUAUUACGUGCU | -1.81 ± 0.16 | -2.14 ± 0.33
13 | GGGGAGCAAUAUUACGUGGC | -3.07 ± 0.48 | -1.12 ± 0.47
14 | GGGGAGCAAUAUUACGUGGG | -2.75 ± 0.32 | –
15 | GGGGAGCAAUAUUACGUUAA | -2.53 ± 0.4 | -1.95 ± 0.35
16 | GGGGAGCAAUAUUACGUUUU | -3.04 ± 0.18 | -2.86 ± 0.25
17 | GGGUAGCAAUAUUACGACAU | -0.113 ± 0.015 | 0.159 ± 0.034
18 | GGGUAGCAAUAUUACGACUA | -0.339 ± 0.1 | 0.878 ± 0.15
19 | GGGUAGCAAUAUUACGAUAC | -1.98 ± 0.22 | -0.628 ± 0.24
20 | GGGUAGCAAUAUUACGAUGG | -2.86 ± 0.24 | -2.65 ± 0.37

Row | Sequence | self-splicing fitness (ln) (30 °C) | self-splicing fitness (ln) (37 °C)
21 | GGGUAGCAAUAUUACGAUUA | -0.341 ± 0.13 | -0.00462 ± 0.1
22 | GGGUAGCAAUAUUACGCAUC | -2.34 ± 0.29 | -2.48 ± 0.24
23 | GGGUAGCAAUAUUACGCCGU | -0.463 ± 0.2 | 0.576 ± 0.23
24 | GGGUAGCAAUAUUACGCGUG | -0.787 ± 0.13 | 0.175 ± 0.12
25 | GGGUAGCAAUAUUACGCUUA | -0.435 ± 0.15 | -0.957 ± 0.13
26 | GGGUAGCAAUAUUACGGCUU | -0.41 ± 0.11 | 0.232 ± 0.12
27 | GGGUAGCAAUAUUACGUGUA | -0.214 ± 0.12 | -0.897 ± 0.14
28 | GGGUAGCAAUAUUACGUUAU | -3.17 ± 0.25 | -1.33 ± 0.15
29 | GGUAAGCAAUAUUACGAAUC | -0.515 ± 0.13 | -0.339 ± 0.16
30 | GGUAAGCAAUAUUACGAUCG | -0.894 ± 0.1 | 0.451 ± 0.17
31 | GGUAAGCAAUAUUACGAUUG | -3.48 ± 0.48 | -3.44 ± 0.39
32 | GGUAAGCAAUAUUACGCGGA | -0.857 ± 0.18 | -2.25 ± 0.2
33 | GGUAAGCAAUAUUACGGCAC | -0.762 ± 0.096 | -0.531 ± 0.15
34 | GGUAAGCAAUAUUACGGGGC | -3.8 ± 0.32 | -2.09 ± 0.31
35 | GGUAAGCAAUAUUACGGUUA | -0.532 ± 0.12 | -0.38 ± 0.096
36 | GGUAAGCAAUAUUACGUAUA | -1.77 ± 0.21 | -1.68 ± 0.26
37 | GGUAAGCAAUAUUACGUCAA | -1.9 ± 0.26 | -1.62 ± 0.2
38 | GGUAAGCAAUAUUACGUGAC | -1.4 ± 0.076 | -1.66 ± 0.12
39 | GGUAAGCAAUAUUACGUGAG | -1.03 ± 0.079 | 0.0462 ± 0.09
40 | GGUAAGCAAUAUUACGUGGA | -2.91 ± 0.21 | -2.52 ± 0.2

— the supplement of paper PMC7877785
